Laboratory results taken from the supplement of paper PMC5998384.

Key:
HeLa Kyoto [1] = assay: solubility change mitosis vs G1/S (difference of NP-40 vs SDS log2 ratios) (log2 ratio difference); higher = more soluble in mitosis
HeLa Kyoto [2] = assay: solubility in G1/S (NP-40 vs SDS abundance) (log2 ratio); higher = more soluble; conditions: cell cycle stage: G1/S
HeLa Kyoto [3] = assay: melting temperature (median over replicates), in situ; higher = more thermally stable
HeLa Kyoto [4] = assay: thermal stability score vs G1/S (z-score of summed log2 fold changes over temperatures); higher = more thermally stable than in G1/S
[5] = cell cycle stage: early G1 (4.5 h after nocodazole release)
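For melting temperature (median over replicates), in situ in this document: HeLa Kyoto cells synchronized by double thymidine or nocodazole block, proteins quantified by TMT10plex mass spectrometry, three independent biological replicates.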
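For solubility change mitosis vs G1/S (difference of NP-40 vs SDS log2 ratios) in this document: synchronized HeLa Kyoto cells (double thymidine block for G1/S, nocodazole release for mitosis), protein amounts in NP-40 versus SDS lysates quantified by mass spectrometry, three biological replicates.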
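For solubility in G1/S (NP-40 vs SDS abundance) in this document: HeLa Kyoto cells arrested at G1/S by double thymidine block, proteins quantified by TMT10plex mass spectrometry in mild NP-40 versus SDS extracts, three biological replicates.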
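For thermal stability score vs G1/S (z-score of summed log2 fold changes over temperatures) in this document: synchronized HeLa Kyoto cells, proteins quantified by TMT10plex mass spectrometry, three biological replicates, mitosis taken 0.5 h after nocodazole release, G1/S directly after double thymidine block.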

| Sequence | solubility change mitosis (log2) (HeLa Kyoto [1]) | solubility in G1/S (log2) (HeLa Kyoto [2]) | melting temperature (HeLa Kyoto [3]; cell cycle stage: G1/S) | melting temperature (HeLa Kyoto [3]; cell cycle stage: mitosis) | thermal stability score (HeLa Kyoto [4]; [5]) | thermal stability score (HeLa Kyoto [4]; cell cycle stage: mitosis) |
| --- | --- | --- | --- | --- | --- | --- |
| MAAPAVSGLSRQVRCFSTSVVRPFAKLVRPPVQVYGIEGRYATALYSAASKQNKLEQVEKELLRVAQILKEPKVAASVLNPYVKRSIKVKSLNDITAKERFSPLTTNLINLLAENGRLSNTQGVVSAFSTMMSVHRGEVPCTVTSASPLEEATLSELKTVLKSFLSQGQVLKLEAKTDPSILGGMIVRIGEKYVDMSVKTKIQKLGRAMREIV [ATP5O] | 0.116 | 0.365 | 53.4 °C | 53.2 °C | -2.17 | -2.27 |
| MAAPGGRGRSLSGLLPAQTSLEYALLDAVTQQEKDSLVYQYLQKVDGWEQDLSVPEFPEGLEWLNTEEPISVYKDLCGKIVVLDFFTYCCINCIHLLPDLHALEHTYSDKDGLLIIGVHSAKFPNEKVLDNIKSAVLRYNITHPMVNDADASLWQELEVSCWPTLVILGPRGNMLFSLIGEGHKDKLFLYTSIALKYYKDRGQIRDNKIGIKLYKDSLPPSPLLFPGKVTVDQVTDRLVIADTGHHRILVVWKNGQIQYSIGGPNPGRKDGIFSESTFNSPQGVAIMNNIIYVADTENHLIRKIDLEAEKVSTVAGIGIQGTDKEGGAKGEQQPISSPWDVVFGTSGSEVQRGDILWIAMAGTHQIWALLLDSGKLPKKNELTKGTCLRFAGSGNEENRNNAYPHKAGFAQPSGLSLASEDPWSCLFVADSESSTVRTVSLKDGAVKHLVGGERDPMNLFAFGDVDGVGINAKLQHPLGVTWDKKRNLLYVADSYNHKIKVVDPKTKNCTTLAGTGDTNNVTSSSFTESTFNEPGGLCIGENGELLYVADTNNHQIKVMDLETKMVSVLPIFRSENAVVDGPFLVEKQKTLPKLPKSAPSIRLSPVTACAGQTLQFKLRLDLPSGSKLTEGVSSCWFLTAEGNEWLLQGQIAAGDIENISSQPTISLQIPDDCLSLEAIVSVSVFLYYCSADSSACMMKAILFSQPLQITDTQQGCIAPVELRYVF [NHLRC2] | -0.199 | 0.0639 | 52 °C | 52.1 °C | 0.332 | -0.145 |
| MAAPLELSCWGGGWGLPSVHSESLVVMAYAKFSGAPLKVNVIDNTWRGSRGDVPILTTEDDMVSQPAKILNFLRKQKYNADYELSAKQGADTLAYIALLEEKLLPAVLHTFWVESDNYFTVTKPWFASQIPFPLSLILPGRMSKGALNRILLTRGQPPLYHLREVEAQIYRDAKECLNLLSNRLGTSQFFFGDTPSTLDAYVFGFLAPLYKVRFPKVQLQEHLKQLSNLCRFCDDILSSYFRLSLGGISPAGQETVDANLQKLTQLVNKESNLIEKMDDNLRQSPQLPPRKLPTLKLTPAEEENNSFQRLSP [MTX3] | 0.0458 | 0.0969 | 51.4 °C | 53 °C | -1.88 | -1.18 |
| MAAPMLRWGCRGRRWAFARVDGGSCHRRGAPTGSTSNQIRGESSVAQQPLHTAQKTRKGEHKWAAVVGLEIHAQISSNSKLFSGSQVRFSAPPNSLVSFFDASLPGTLPVLNRRCVEAAVMTGLALNCHINKKSLFDRKHYFYADLPAGYQITQQRLPIAVNGSLIYGVCAGKKQSQVIPKTVRIKQIQLEQDSGKSLHDNLRSQTLIDLNRAGVGLLEVVLEPDMSCGEEAATAVRELQLILQALGTSQANMAEGQLRVDANISVHHPGEPLGVRTEVKNLNSIRFLAKAIDYEIQRQINELENGGEILNETRSFHHKLGCTMSMRDKEGKQDYRFMPEPNLPPLVLYDATSLPAGADPQQVINIDQIRETLPELPSVTREKLVQQYGMLLEHSFTLLNEVGLLEFFQNVIKETRAEPKKVTSWVLNTFLGYLKQQNLAVSESPVTPSALAELLDLLDSRTISSSAAKQVFEELWKREGKTPGQIVSEKQLELMQDQGALEQLCHSVMEAHPQVVMDVKNRNPRAINKLIGLVRKATQSRADPVMIKEILEKKLSL [GATB] | -0.154 | 0.473 | 48.3 °C | 48.7 °C | -0.148 | 0.829 |
| MAAPPARADADPSPTSPPTARDTPGRQAEKSETACEDRSNAESLDRLLPPVGTGRSPRKRTTSQCKSEPPLLRTSKRTIYTAGRPPWYNEHGTQSKEAFAIGLGGGSASGKTTVARMIIEALDVPWVVLLSMDSFYKVLTEQQQEQAAHNNFNFDHPDAFDFDLIISTLKKLKQGKSVKVPIYDFTTHSRKKDWKTLYGANVIIFEGIMAFADKTLLELLDMKIFVDTDSDIRLVRRLRRDISERGRDIEGVIKQYNKFVKPSFDQYIQPTMRLADIVVPRGSGNTVAIDLIVQHVHSQLEERELSVRAALASAHQCHPLPRTLSVLKSTPQVRGMHTIIRDKETSRDEFIFYSKRLMRLLIEHALSFLPFQDCVVQTPQGQDYAGKCYAGKQITGVSILRAGETMEPALRAVCKDVRIGTILIQTNQLTGEPELHYLRLPKDISDDHVILMDCTVSTGAAAMMAVRVLLDHDVPEDKIFLLSLLMAEMGVHSVAYAFPRVRIITTAVDKRVNDLFRIIPGIGNFGDRYFGTDAVPDGSDEEEVAYTG [UCKL1] | 0.0371 | -0.0507 | 51.6 °C | 51.6 °C | -1.2 | -0.843 |
| MAAPPEPGEPEERKSLKLLGFLDVENTPCARHSILYGSLGSVVAGFGHFLFTSRIRRSCDVGVGGFILVTLGCWFHCRYNYAKQRIQERIAREEIKKKILYEGTHLDPERKHNGSSSN [COX20] | -0.0179 | 0.0379 | 55.3 °C | 58 °C | -0.338 | -1.53 |
| MAAPRVFPLSCAVQQYAWGKMGSNSEVARLLASSDPLAQIAEDKPYAELWMGTHPRGDAKILDNRISQKTLSQWIAENQDSLGSKVKDTFNGNLPFLFKVLSVETPLSIQAHPNKELAEKLHLQAPQHYPDANHKPEMAIALTPFQGLCGFRPVEEIVTFLKKVPEFQFLIGDEAATHLKQTMSHDSQAVASSLQSCFSHLMKSEKKVVVEQLNLLVKRISQQAAAGNNMEDIFGELLLQLHQQYPGDIGCFAIYFLNLLTLKPGEAMFLEANVPHAYLKGDCVECMACSDNTVRAGLTPKFIDVPTLCEMLSYTPSSSKDRLFLPTRSQEDPYLSIYDPPVPDFTIMKTEVPGSVTEYKVLALDSASILLMVQGTVIASTPTTQTPIPLQRGGVLFIGANESVSLKLTEPKDLLIFRACCLL [MPI] | -0.154 | 0.389 | 50.7 °C | 50.4 °C | -0.708 | -0.365 |
| MAAPSGGVNCEEFAEFQELLKVMRTIDDRIVHELNTTVPTASFAGKIDASQTCKQLYESLMAAHASRDRVIKNCIAQTSAVVKNLREEREKNLDDLTLLKQLRKEQTKLKWMQSELNVEEVVNDRSWKVFNERCRIHFKPPKNE [CCDC58] | 0.251 | 0.6 | 53.3 °C | 52.6 °C | -0.935 | -0.43 |
